Data published in patent publication US20130315910A1 (Xencor, published 2013).

T1: mFcγRIIb (Mus musculus, UniProt P08101)
T1 construct: extracellular region, C-terminal His- and GST-tag; also called mouse FcγRII
T1 sequence (receptor extracellular region, looked up): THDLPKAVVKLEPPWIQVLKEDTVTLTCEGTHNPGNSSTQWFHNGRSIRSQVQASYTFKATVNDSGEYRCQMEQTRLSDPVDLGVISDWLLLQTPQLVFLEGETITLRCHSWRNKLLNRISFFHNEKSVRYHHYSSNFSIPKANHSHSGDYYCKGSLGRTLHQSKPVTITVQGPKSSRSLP

T2: cynoFcγRIIb (Macaca fascicularis, UniProt A0A140HDP4)
T2 construct: extracellular region, C-terminal His- and GST-tag; also called cynomolgus monkey FcγRIIb
T2 sequence (receptor extracellular region): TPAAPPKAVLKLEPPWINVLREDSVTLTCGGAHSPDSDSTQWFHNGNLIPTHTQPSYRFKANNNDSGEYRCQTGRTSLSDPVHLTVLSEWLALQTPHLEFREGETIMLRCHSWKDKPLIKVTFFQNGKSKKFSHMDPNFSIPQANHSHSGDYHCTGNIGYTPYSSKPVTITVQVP

T3: human FcγRIIb receptor protein (R&D Systems) (human, UniProt P31994 46-217)
T3 construct: Bought protein injected over captured antibody in Biacore; also called CD32b
T3 sequence (looked up): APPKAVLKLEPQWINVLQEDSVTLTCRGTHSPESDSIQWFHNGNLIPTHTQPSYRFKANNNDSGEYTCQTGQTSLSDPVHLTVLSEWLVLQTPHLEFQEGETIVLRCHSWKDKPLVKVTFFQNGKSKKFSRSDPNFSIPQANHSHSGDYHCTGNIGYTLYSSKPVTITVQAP

T4: human FcγRIIa (131R), His- and GST-tagged (human, UniProt P12318 34-217)
T4 construct: Expressed in HEK293T cells, purified by nickel chromatography; also called R131 FcγRIIa; not shown: 6xHis and GST tags of the pTT5 vector
T4 sequence (looked up): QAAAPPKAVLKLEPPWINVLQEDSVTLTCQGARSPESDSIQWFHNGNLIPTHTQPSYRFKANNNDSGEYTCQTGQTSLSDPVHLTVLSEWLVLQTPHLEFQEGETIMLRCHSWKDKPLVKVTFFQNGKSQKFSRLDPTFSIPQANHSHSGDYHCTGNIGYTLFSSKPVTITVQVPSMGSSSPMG

T5: human FcγRIIb on cells (transfected HEK293T cells; primary human B cells) (human, UniProt P31994 43-310)
T5 construct: whole, on cells; also called CD32b
T5 sequence (looked up): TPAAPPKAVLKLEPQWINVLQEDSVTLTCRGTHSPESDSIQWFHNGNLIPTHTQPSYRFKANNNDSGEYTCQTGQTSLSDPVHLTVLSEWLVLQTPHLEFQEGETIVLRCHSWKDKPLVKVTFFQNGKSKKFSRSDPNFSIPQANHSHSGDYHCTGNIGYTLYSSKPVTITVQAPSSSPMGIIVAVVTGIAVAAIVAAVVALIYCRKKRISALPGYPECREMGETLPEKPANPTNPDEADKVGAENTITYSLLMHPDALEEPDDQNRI

T6: human FcγRIIa (131H), His- and GST-tagged (human, UniProt P12318 34-217)
T6 construct: also called H131 FcγRIIa; HIIa; not shown: 6xHis and GST tags of the pTT5 vector
T6 sequence (looked up): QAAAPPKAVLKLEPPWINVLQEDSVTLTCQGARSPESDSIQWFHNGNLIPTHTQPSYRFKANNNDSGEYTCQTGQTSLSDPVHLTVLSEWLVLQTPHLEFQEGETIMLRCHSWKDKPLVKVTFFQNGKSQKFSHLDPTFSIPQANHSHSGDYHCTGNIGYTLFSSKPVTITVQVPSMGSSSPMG


Tests used:
mFcγRIIb [1] = molecular target: T1, mFcγRIIb; assay: SPR
cynoFcγRIIb = molecular target: T2, cynoFcγRIIb; assay: SPR, Kd
Description: (§1) Variants were screened for receptor affinity using Biacore™ technology, also referred to as Biacore herein, a surface plasmon resonance (SPR) based technology for studying biomolecular interactions in real time. SPR measurements were performed using a Biacore 3000 instrument (Biacore, Piscataway, N.J.). A protein A/G (Pierce Biotechnology) CM5 biosensor chip (Biacore) was generated using a standard primary amine coupling protocol. All measurements were performed using HBS-EP buffer (10 mM HEPES pH 7.4, 0.15 M NaCl, 3 mM EDTA, 0.005% vol/vol surfactant P20, Biacore). Antibodies at 20 nM or 50 nM in HBS-EP buffer were immobilized on the protein A/G surface and FcγRs were injected. After each cycle, the surface was regenerated by injecting glycine buffer (10 mM, pH 1.5). Data were processed by zeroing time and response before the injection of FcγR and by subtracting appropriate nonspecific signals (response of reference channel and injection of running buffer). Kinetic analyses were performed by global fitting of binding data with a 1:1 Langmuir binding model using BIAevaluation software (Biacore).
(§2) Variant antibodies were tested for their affinity to mouse or cynologous monkey FcγRs using Biacore SPR as described above. Specifically, antibodies were first immobilized on a protein A/G chip to high density, and then followed by injections of the extracellular domain of the mouse or cynologous monkey FcγR of interest. Both association and dissociation phases were tracked in real time using the Biacore technology.

[2] = molecular target: T3, human FcγRIIb receptor protein (R&D …); assay: SPR
[3] = molecular target: T4, human FcγRIIa (131R), His- and …; assay: SPR
[4] = molecular target: T5, human FcγRIIb on cells (transfected …); assay: flow cytometry on FcγRIIb-transfected 293T cells [middle left panel]
Description: In order to validate the Biacore data and evaluate receptor binding of the variants on the cell surface, binding of select antibodies to cells expressing FcγRIIb was measured. […] HEK293T cells in DMEM with 10% FBS were transfected with human FcγRIIb cDNA in pCMV6 expression vector (Origene Technologies, Rockville, Md.), cultured for 3 days, harvested, washed twice in PBS, resuspended in PBS with 0.1% BSA (PBS/BSA), and aliquoted at 2×10^5 cells per well into 96-well microtiter plates. Fc variant antibodies were serially diluted in PBS/BSA then added to the cells and incubated with mixing for 1 h at room temperature. After extensive washing with PBS/BSA, phycoerythrin (PE)-labeled anti-human-Fab-specific goat F(ab′)2 fragment was added for detection. Cells were incubated for 30 min at room temperature, washed, and resuspended in PBS/BSA. Binding was evaluated using a FACSCanto II flow cytometer (BD Biosciences, San Jose, Calif.), and the mean fluorescence intensity (MFI) was plotted as a function of antibody concentration using Graph Pad Prism software (GraphPad Software, San Diego, Calif.) from which half-maximal binding (EC50) values were determined by sigmoidal dose response modeling.

[5] = molecular target: T7, human FcγRIIIa (158V), His- and GST-tagged (human, UniProt P08637 17-208); assay: SPR
T7 construct: also called V158 FcγRIIIa; VIIIa; not shown: 6xHis and GST tags of the pTT5 vector

[6] = molecular target: T8, human FcγRI receptor protein (R&D Systems) (human, UniProt P12314 16-288); assay: SPR
T8 construct: also called soluble FcγRI; solFcγRI

[7] = molecular target: T6, human FcγRIIa (131H), His- and …; assay: SPR
mFcγRIIb [8] = molecular target: T1, mFcγRIIb; assay: SPR, Kd
Description: as §1, §2

T8 sequence (P12314 16-288 limits assumed): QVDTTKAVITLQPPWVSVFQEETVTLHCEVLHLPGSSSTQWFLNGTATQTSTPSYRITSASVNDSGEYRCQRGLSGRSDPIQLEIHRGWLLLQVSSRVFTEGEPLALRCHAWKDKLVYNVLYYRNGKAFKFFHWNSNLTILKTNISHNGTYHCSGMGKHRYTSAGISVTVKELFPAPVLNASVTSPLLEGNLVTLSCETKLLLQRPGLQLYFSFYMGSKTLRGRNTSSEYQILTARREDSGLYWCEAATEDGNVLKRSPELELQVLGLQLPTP
T7 sequence (P08637 17-208 F176V): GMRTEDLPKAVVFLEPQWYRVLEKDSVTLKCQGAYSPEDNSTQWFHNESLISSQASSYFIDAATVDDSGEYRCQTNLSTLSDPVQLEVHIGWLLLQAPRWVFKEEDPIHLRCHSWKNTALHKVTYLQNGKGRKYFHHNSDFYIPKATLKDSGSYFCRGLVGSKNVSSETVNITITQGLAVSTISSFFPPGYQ

Fold vs WT IgG1 (Kd) (mFcγRIIb [1]) [fold]	binding result (cynoFcγRIIb)	Fold vs WT IgG1 [2] [fold]	Kd [2] [µM]	Fold vs WT IgG1 [3] [fold]	Kd [3] [µM]	EC50 (read off the curve) [4] [ng/mL]	Fold vs WT IgG1 [5] [fold]	Kd [5] [µM]	Fold vs WT IgG1 [6] [fold]	Kd [6] [µM]	Fold vs WT IgG1 [7] [fold]	Kd [7] [µM]	binding result (mFcγRIIb [8])	Binder
0.029	no binding	11.4	0.129	5.69	0.151	–	–	–	–	–	–	–	–	L234W/G236D/S239E/S267E (antibody, human IgG1, kappa, HuAM4G7 anti-CD19 IgG1 (m1) with these Fc substitutions, EU index; copies: 2 + 2) heavy: EVQLVESGGGLVKPGGSLKLSCAASGYTFTSYVMHWVRQAPGKGLEWIGYINPYNDGTKYNEKFQGRVTISSDKSISTAYMELSSLRSEDTAMYYCARGTYYYGTRVFDYWGQGTLVTVSSASTKGPSVFPLAPSSKSTSGGTAALGCLVKDYFPEPVTVSWNSGALTSGVHTFPAVLQSSGLYSLSSVVTVPSSSLGTQTYICNVNHKPSNTKVDKKVEPKSCDKTHTCPPCPAPEWLDGPEVFLFPPKPKDTLMISRTPEVTCVVVDVEHEDPEVKFNWYVDGVEVHNAKTKPREEQYNSTYRVVSVLTVLHQDWLNGKEYKCKVSNKALPAPIEKTISKAKGQPREPQVYTLPPSREEMTKNQVSLTCLVKGFYPSDIAVEWESNGQPENNYKTTPPVLDSDGSFFLYSKLTVDKSRWQQGNVFSCSVMHEALHNHYTQKSLSLSPGK light: DIVMTQSPATLSLSPGERATLSCRSSKSLQNVNGNTYLYWFQQKPGQSPQLLIYRMSNLNSGVPDRFSGSGSGTEFTLTISSLEPEDFAVYYCMQHLEYPITFGAGTKLEIKRTVAAPSVFIFPPSDEQLKSGTASVVCLLNNFYPREAKVQWKVDNALQSGNSQESVTEQDSKDSTYSLSSTLTLSKADYEKHKVYACEVTHQGLSSPVTKSFNRGEC
–	–	29.2	0.0502	30.7	0.028	~10	0.0448	4.27	1.98	0.000166	10.9	0.0592	–	V266M/S267E (antibody, human IgG1, kappa, HuAM4G7 anti-CD19 IgG1 (m1) with these Fc substitutions, EU index; copies: 2 + 2) heavy: not shown light: DIVMTQSPATLSLSPGERATLSCRSSKSLQNVNGNTYLYWFQQKPGQSPQLLIYRMSNLNSGVPDRFSGSGSGTEFTLTISSLEPEDFAVYYCMQHLEYPITFGAGTKLEIKRTVAAPSVFIFPPSDEQLKSGTASVVCLLNNFYPREAKVQWKVDNALQSGNSQESVTEQDSKDSTYSLSSTLTLSKADYEKHKVYACEVTHQGLSSPVTKSFNRGEC
–	no binding	0.0578	25.4	–	–	–	–	–	–	–	–	–	no binding	G236A/G237A (antibody, human IgG1, kappa, HuAM4G7 anti-CD19 IgG1 (m1) with these Fc substitutions, EU index; copies: 2 + 2) heavy: not shown light: DIVMTQSPATLSLSPGERATLSCRSSKSLQNVNGNTYLYWFQQKPGQSPQLLIYRMSNLNSGVPDRFSGSGSGTEFTLTISSLEPEDFAVYYCMQHLEYPITFGAGTKLEIKRTVAAPSVFIFPPSDEQLKSGTASVVCLLNNFYPREAKVQWKVDNALQSGNSQESVTEQDSKDSTYSLSSTLTLSKADYEKHKVYACEVTHQGLSSPVTKSFNRGEC
